Experimental data reported in patent US20240141039A1 (AGENUS, published 2024).
Where two headings read alike, the source gives them in different places.

Legend:
[1] = biological target: T1, full-length isoform 2 ECD of cynomolgus monkey CD96 (His-tagged) (cynomolgus monkey); assay: SPR Biacore T200, Protein A capture, 1:1 model, experiment #2
T1 construct: also called His-tagged isoform 2 of cynomolgus monkey CD96; cyno CD96 extracellular domain isoform 2
T1 chain: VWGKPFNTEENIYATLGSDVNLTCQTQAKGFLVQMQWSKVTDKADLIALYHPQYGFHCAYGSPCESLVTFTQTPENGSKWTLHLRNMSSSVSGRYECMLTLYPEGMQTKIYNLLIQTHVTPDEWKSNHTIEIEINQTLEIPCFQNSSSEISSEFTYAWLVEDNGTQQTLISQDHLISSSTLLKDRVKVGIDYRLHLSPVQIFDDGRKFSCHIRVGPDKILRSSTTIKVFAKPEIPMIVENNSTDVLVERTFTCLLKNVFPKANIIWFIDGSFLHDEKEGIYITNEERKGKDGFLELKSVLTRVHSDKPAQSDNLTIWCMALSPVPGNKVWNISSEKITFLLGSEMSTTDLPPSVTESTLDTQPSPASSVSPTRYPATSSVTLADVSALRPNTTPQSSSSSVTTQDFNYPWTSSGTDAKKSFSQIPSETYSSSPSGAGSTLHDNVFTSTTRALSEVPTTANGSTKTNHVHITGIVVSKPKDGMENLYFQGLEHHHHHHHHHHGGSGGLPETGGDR
Description: (§1) Briefly, surface plasmon resonance experiments were performed using a Biacore T200 instrument, and the association rate (kₐ), dissociation rate (kd), and dissociation constant (KD) were calculated from each experiment using a 1:1 binding model with Biacore T200 Evaluation Software.
(§2) Multispecific molecules were captured using a 30-sec injection at a flow rate of 10 μl/min to reach about 350 resonance units (RUs). […] The sensor chip was regenerated between cycles with two 30-sec injections of 10 mM glycine, pH 1.5. Sensorgrams were evaluated and fit to a simple Langmuir 1:1 interaction model using the global data analysis option of BIAevaluation 3.0 software. Data quality was verified by visually inspecting deviations and curve fitting, and by evaluating the parameters of Rₘₐₓ, Chi2, and Tc.

[2] = biological target: T2, full-length ECD of human TIGIT (His-tagged) (human); assay: SPR Biacore T200, geomean of experiments #1 and #2
T2 construct: also called His-tagged human TIGIT; human TIGIT extracellular domain
T2 chain: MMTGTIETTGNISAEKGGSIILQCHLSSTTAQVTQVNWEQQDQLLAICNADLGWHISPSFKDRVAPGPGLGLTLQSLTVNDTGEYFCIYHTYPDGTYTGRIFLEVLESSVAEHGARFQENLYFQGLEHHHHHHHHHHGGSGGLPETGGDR
Description: as §1
as §2, with “1000” for “350”

[3] = biological target: T3, wild type full-length human TIGIT expressed on cells (human, UniProt Q495A1 22-244); assay: flow cytometry, blocking of human CD155-Fc-PE binding to CHO cells expressing human TIGIT
T3 construct: whole, on cells; also called human TIGIT-CHO; human TIGIT CHO cells
T3 sequence (looked up): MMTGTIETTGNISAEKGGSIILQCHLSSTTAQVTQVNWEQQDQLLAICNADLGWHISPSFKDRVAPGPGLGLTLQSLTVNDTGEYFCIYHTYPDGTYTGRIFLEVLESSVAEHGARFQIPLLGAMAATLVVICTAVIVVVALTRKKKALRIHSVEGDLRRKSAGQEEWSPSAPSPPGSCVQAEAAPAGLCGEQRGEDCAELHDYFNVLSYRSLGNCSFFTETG
Description: A 4× concentrated intermediate stock of each multispecific molecule was prepared in a microplate. Antibodies were serially diluted 1-to-3 in FACS buffer. […] Lastly, 25 μL of human TIGIT-CHO cells, prepared as described above, were added to each well. After a 30-minute incubation on ice, the cells were washed twice with cold FACS Buffer, and the cells were analyzed by flow cytometry (BD LSR Fortessa Flow Cytometer). The data were analyzed using the FlowJo software by sequentially gating on the FSC-A vs. SSC-A and SSC-H vs. SSC-A. Mean fluorescence intensity (MFI) values for PE were calculated, and the data were plotted by GraphPad Prism software and analyzed as described above.

[4] = biological target: CD8+ T cells (CD3-stimulated; Day 4); assay: flow cytometry on activated primary human T cells, gated CD8+, donor 2; PE anti-human IgG detection
Description: A total of 8 dilutions ranging from 50 μg/mL to 0.000005 μg/mL were prepared. After four days, the sample plates were centrifuged for two minutes at 2000 rpm, and supernatants were discarded. Samples were blocked with FcγR Block prepared in FACs buffer at 5 μL per 100 μL test for 10 minutes. Sample plates were then centrifuged for two minutes at 2000 rpm, and the supernatant was discarded. The cells were then re-suspended in 100 μL of anti-TIGIT×CD96 multispecific molecule or a relevant isotype control at the concentrations shown in FIGS. 26A-26F. Sample plates were incubated for 30 minutes at 4° C. Cells were washed by addition of cold sample buffer and centrifuged for two minutes at 2000 rpm, and the supernatant was discarded. This wash was repeated once.
Cells were then resuspended in a cocktail of fluorescently labeled antibodies. A cocktail of fluorescently labeled antibodies sufficient for all samples was prepared in FACs buffer. 100 μL of antibody per well was then added to a round-bottom 96-well plate. […]
(§3) Antibody binding was measured by flow cytometry using a BD LSR Fortessa Flow Cytometer. […] 100,000 events were recorded for each sample. Samples were analyzed by sequentially gating on the following populations: FSC-A vs. SSC-A, FSC-H vs. FSC-A, SSC-A vs. LIVE/DEAD, CD4 vs. CD8, and SSC vs. CD25. Mean fluorescence intensity (MFI) was calculated.

[5] = biological target: CD8+ T cells (CD3-stimulated; Day 4); assay: as above; remark: listed apart in the source
Description: A total of 8 dilutions ranging from 50 μg/mL to 0.000005 μg/mL were prepared. After four days, the sample plates were centrifuged for two minutes at 2000 rpm, and supernatants were discarded. Samples were blocked with FcγR Block prepared in FACs buffer at 5 μL per 100 μL test for 10 minutes. Sample plates were then centrifuged for two minutes at 2000 rpm, and the supernatant was discarded. […] Sample plates were incubated for 30 minutes at 4° C. Cells were washed by addition of cold sample buffer and centrifuged for two minutes at 2000 rpm, and the supernatant was discarded. This wash was repeated once.
Cells were then resuspended in a cocktail of fluorescently labeled antibodies. A cocktail of fluorescently labeled antibodies sufficient for all samples was prepared in FACs buffer. 100 μL of antibody per well was then added to a round-bottom 96-well plate. The sample plate was incubated for 20 minutes on ice. Cells were washed by addition of cold sample buffer, centrifuged for two minutes at 2000 rpm, and supernatants discarded. […]
as §3

[6] = biological target: T4, full-length human FcγRIIIa variant F/F expressed on CHO cells (human, UniProt P08637 17-254); assay: flow cytometry, human FcγRIIIa (F/F) CHO cells, 1 experiment
T4 construct: whole, on cells; also called human FcγRIIIa-CHO (variant F/F); human FcγRIIIa (F/F) CHO cells
T4 sequence (P08637 17-254, change not shown): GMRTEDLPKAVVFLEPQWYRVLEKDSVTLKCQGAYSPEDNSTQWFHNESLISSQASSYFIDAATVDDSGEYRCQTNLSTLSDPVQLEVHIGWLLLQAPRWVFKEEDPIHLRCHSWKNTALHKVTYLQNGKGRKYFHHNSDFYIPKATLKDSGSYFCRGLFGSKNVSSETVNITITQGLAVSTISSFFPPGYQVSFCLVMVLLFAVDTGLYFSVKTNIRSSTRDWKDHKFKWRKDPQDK
Description: For the antibody binding assay, a frozen aliquot of human FcγRIIIa-CHO cells (variant V/V or variant F/F) was thawed at 37° C. and then transferred to a tube containing DPBS supplemented with 0.5% Bovine Serum Albumin and 0.05% Sodium Azide (FACS Buffer). Cells were centrifuged at 300 g for five minutes. The supernatant was discarded, and cells resuspended in FACS buffer were seeded in a 96-well U-bottom tissue culture plate at a density of 2×10⁵ cells per well in 50 μL. In a separate microplate, a 2× concentrated intermediate stock of each antibody was prepared. Antibodies were serially diluted 1-to-4 in FACS buffer. A total of 11 working dilutions ranging from 60 μg/mL to 0.000057 μg/mL were prepared. Fifty microlitres of each dilution were then transferred to the microplate containing human FcγRIIIa-CHO (variant V/V or variant F/F) cells. The cells were then incubated for 45 minutes at 4° C. […] After a 30-minute incubation on ice, the cells were washed twice with cold FACS Buffer, and the cells were analyzed by flow cytometry (BD LSR Fortessa Flow Cytometer). The data were analyzed using the FlowJo software by sequentially gating the FSC-A vs. SSC-A, and SSC-H vs. SSC-A. Mean fluorescence intensity (MFI) values for PE were calculated, and the data were plotted by GraphPad Prism software.

B1: anti-TIGIT×CD96 multispecific molecule BA123 (bispecific antibody, human IgG1, kappa, lambda)
heavy 1: QVQLVQSGAEVKKPGASVKVSCKASGYTFTSYGISWVRQAPGQGLEWMGWISAYNANTNYAQKLQGRVTMTTDTSTSTAYMELRSLRSDDTAVYYCARSAGVLGGMDVWGRGTLVTVSSASTKGPSVFPLAPSSKSTSGGTAALGCLVKDYFPEPVTVSWNSGALTSGVHTFPAVLQSSGLYSLSSVVTVPSSSLGTQTYICNVNHKPSNTKVDKRVEPKSCDKTHTCPPCPAPELLGGPDVFLFPPKPKDTLMISRTPEVTCVVVDVSHEDPEVKFNWYVDGVEVHNAKTKPREEQYNSTYRVVSVLTVLHQDWLNGKEYKCKVSNKALPAPIEKTISKAKGQPREPQVYTLPPSREEMTKNQVSLSCAVKGFYPSDIAVEWESNGQPENNYKTTPPVLDSDGSFFLVSKLTVDKSRWQQGNVFSCSVMHEALHNHYTQKSLSLSPG
light 1: not shown
heavy 2: EVQLVQSGAEVKKPGSSVKVSCKASGYTFASYGISWVRQAPGQGLEWMGGITPFFNRVDVAEKFQGRVTITADKSTSTAYIELSSLRSEDTAVYYCARDLRRGGVGDAFDIWGRGTLVTVSSASTKGPSVFPLAPSSKSTSGGTAALGCLVKDYFPEPVTVSWNSGALTSGVHTFPAVLQSSGLYSLSSVVTVPSSSLGTQTYICNVNHKPSNTKVDKRVEPKSCDKTHTCPPCPAPELLGGPDVFLFPPKPKDTLMISRTPEVTCVVVDVSHEDPEVKFNWYVDGVEVHNAKTKPREEQYNSTYRVVSVLTVLHQDWLNGKEYKCKVSNKALPLPEEKTISKAKGQPREPQVYTLPPSREEMTKNQVSLWCLVKGFYPSDIAVEWESNGQPENNYKTTPPVLDSDGSFFLYSKLTVDKSRWQQGNVFSCSVMHEALHNHYTQKSLSLSPG
light 2: QSALTQPRSVSGSPGQSVTISCTGTSPDVGSHAYRSWYQQHPGKAPKLMIYEVSYRPSGVSNRFSGSKSGNTASLTISGLQAEDEADYYCSSYPPSSATVFGAGTKLTVLGQPKAAPSVTLFPPSSEELQANKATLVCLISDFYPGAVTVAWKADSSPVKAGVETTTPSKQSNNKYAASSYLSLTPEQWKSHRSYSCQVTHEGSTVEKTVAPTEC
notes: copies: 1 + 1 + 1 + 1
[1]
  Kd: 42.7 nM
  koff: 0.00324 s⁻¹
  kon: 75900 M⁻¹ s⁻¹

B2: anti-TIGIT×CD96 multispecific molecule BA127 (bispecific antibody, human IgG1, kappa, lambda)
heavy 1: QVQLVQSGAEVKKPGASVKVSCKASGYTFTTYALHWVRQAPGQRLEWMGWINTGSGDTKYSQKFQGRVTITRDTSASTAYMELSSLRSEDTAVYYCARSLGVYYGMDVWGQGTLVTVSSASTKGPSVFPLAPSSKSTSGGTAALGCLVKDYFPEPVTVSWNSGALTSGVHTFPAVLQSSGLYSLSSVVTVPSSSLGTQTYICNVNHKPSNTKVDKRVEPKSCDKTHTCPPCPAPELLGGPDVFLFPPKPKDTLMISRTPEVTCVVVDVSHEDPEVKFNWYVDGVEVHNAKTKPREEQYNSTYRVVSVLTVLHQDWLNGKEYKCKVSNKALPAPIEKTISKAKGQPREPQVYTLPPSREEMTKNQVSLSCAVKGFYPSDIAVEWESNGQPENNYKTTPPVLDSDGSFFLVSKLTVDKSRWQQGNVFSCSVMHEALHNHYTQKSLSLSPG
light 1: not shown
heavy 2: B1 heavy 2
light 2: B1 light 2
notes: Anti-CD96 arm = BA139, anti-TIGIT arm = BA150; copies: 1 + 1 + 1 + 1
[2]
  Kd: 0.59 nM
[3]
  IC50 (read off the curve): ~0.1 µg/mL
[4]
  EC50 (read off the curve): ~0.3 µg/mL
[5]
  EC50 (read off the curve): ~0.06 µg/mL

B3: anti-TIGIT monospecific antibody BA148 (antibody, human IgG1, lambda)
heavy: EVQLVQSGAEVKKPGSSVKVSCKASGYTFASYGISWVRQAPGQGLEWMGGITPFFNRVDVAEKFQGRVTITADKSTSTAYIELSSLRSEDTAVYYCARDLRRGGVGDAFDIWGRGTLVTVSSASTKGPSVFPLAPSSKSTSGGTAALGCLVKDYFPEPVTVSWNSGALTSGVHTFPAVLQSSGLYSLSSVVTVPSSSLGTQTYICNVNHKPSNTKVDKRVEPKSCDKTHTCPPCPAPELLGGPDVFLFPPKPKDTLMISRTPEVTCVVVDVSHEDPEVKFNWYVDGVEVHNAKTKPREEQYNSTYRVVSVLTVLHQDWLNGKEYKCKVSNKALPLPEEKTISKAKGQPREPQVYTLPPSREEMTKNQVSLTCLVKGFYPSDIAVEWESNGQPENNYKTTPPVLDSDGSFFLYSKLTVDKSRWQQGNVFSCSVMHEALHNHYTQKSLSLSPGK
light: B1 light 2
notes: IgG1; also called anti-TIGIT IgG1 antibody BA148
[6]
  EC50: 0.00262 µg/mL
